Measurements taken from patent US20220409696A1, “Heparin-Associated Polypeptides and Uses Thereof” (Juvena Therapeutics, Inc., priority 2021, published 2022).

Test system: DM1 human myoblast
Assay: Gene expression fold change in DM1 human myoblast
Assay type: cell-based
Settings: 48 h; BMP7 50 ng/mL, Butyrate 100 nM, IGF2 200 ng/mL
Protocol: Myoblasts were cultured 48 h in the presence of factors (BMP7 50 ng/mL, Butyrate 100 nM, IGF2 200 ng/mL).
Myoblasts were cultured 96 h in the presence of factors (IGF2 200 ng/mL). […] Myoblasts were cultured 48 h in the presence of factors (IGF2 200 ng/mL).
RNA was isolated from each well (RNeasy Mini Kit, Qiagen) and cDNA was obtained by reverse-transcription (High Capacity Reverse Transcription Kit, Thermo Fisher Scientific). Real-time quantitative PCR was performed using QuantStudio3 (Thermo Fisher).
IGF2 was tested individually for its ability to promote proliferation and/or fusion of human muscle progenitor cells from an individual with myotonic dystrophy type 1 (hMD)—a muscular dystrophy caused by mutations in the DMPK1 gene. The effect of IGF2 on myogenic activity was assayed in biological triplicate across a range of concentrations centered around expected physiological levels by adding each factor to hMD myoblasts for 72 hours with daily media changes (DMEM+2% horse serum) and a second pulse of factors at the first media change. After 72 or 96 hours, cells were pulsed for 2-5 hours with EdU (30 uM), ethanol fixed, stained with Hoescht 3342, immunostained for proliferation—as measured by the percent of cells staining positive for EdU (% EdU)-, and immunostained for differentiation—as measured by the increase in cellular area staining positive for embryonic myosin heavy chain (% eMyHC) relative to the negative controls, which received media and vehicle only. Wells were imaged on a Keyence BZ-100 at 4×, the images quantified in Cell Profiler, and the statistics were computed in R. Additionally, RNA was extracted from myoblast and select transcript abundances quantified by qPCR.

B1: BMP7: factor BMP7 added at 50 ng/mL to DM1 human myoblasts (protein, UniProt P18075 293-431, looked up)
Bone morphogenetic protein 7: STGSKQRSQNRSKTPKNQEALRMANVAENSSSDQRQACKKHELYVSFRDLGWQDWIIAPEGYAAYYCEGECAFPLNSYMNATNHAIVQTLVHFINPETVPKPCCAPTQLNAISVLYFDDSSNVILKKYRNMVVRACGCH
For B1, the “MYF5 myogenic gene expression fold change compared to FM (vehicle)” value was 0.709, the “MYODI myogenic gene expression fold change compared to FM (vehicle)” value was 0.709 and the “MYOG myogenic gene expression fold change compared to FM (vehicle)” value was 0.361.
